Consider 21 variants from the RNAGym collection of RNA variant scans (doi:10.1073/pnas.2313332121).

Sequences and labels used below:
B1: TPR t1 (parent)
chain: GACCAAUCUGCCCUCAGAGCUCGAGAACAUCUUCGGAUGCAGAGGAGGCAGGCUUCGGUGGCGCGAUAGCGCCAACGUCCUCAACCUCCAAUGCAUCCCACCACAUGAUGAUGCCUGAAGAGCCUUGGUUUUUUG

The variants in the data set derive from B1. Put plainly: polymerase ribozyme fitness, log enrichment relative to wild type (log ratio); higher = more active; in vitro selection for triplet polymerase activity. A digest of the protocol:
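For each subunit of a heterodimeric triplet polymerase ribozyme, a mutant library was built by PCR and transcribed, then taken through a single in vitro selection round in triplicate. Selection involved annealing to a biotinylated primer, the partner subunit and triplets, incubation frozen at −7 °C, gel excision of extended constructs, capture on streptavidin beads and RT-PCR. Genotypes were retained after Illumina sequencing of inputs and outputs only with ≥10 input reads and ≥1 read in each output. Fitness is defined as the logarithm of a genotype's enrichment relative to wild-type enrichment, using inverse-variance-weighted averages across replicates, with the logarithm taken to base 2.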
Regarding GACCAAUCUGCCCUCAGAGCUCGAGAACAUCUUCGGAUGCAGAGGAGGCAGGCUUUGGUGGCGCGAUACCGCCAACGUCCUCAACCUCCAAUGCAUCCCACCACAUGAUGAUGGCUGAAGAGCCUUGGUUUUUUG [C56U G69C C114G], the “polymerase ribozyme fitness (log ratio)” value was -6.88.

With GACCAAUCUGCCCUCAGAGCUCGAGAACAUCUUCGGAUGCAGAGGAGGCAGGCUUUGGUAGCGCGAUAGCGCCAACGUCCUCAACCUCCAAUGCAUCCCAUCACAUGAUGAUGCCUGAAGAGCCUUGGUUUUUUG [C56U G60A C101U], the “polymerase ribozyme fitness (log ratio)” value was -5.48.

As for GACCAAUCUGCCCUCAGAGCUCGAGAACAUCUUCGGAUGCAGAGGAGGCAGGCUUUGGUGGCGCGAUAGCGCCAACGUCCUCAACCUCCAAUGCAUCCCACCACAUGAUUAUGCCGUAAGAGCCUUGGUUUUUUG [C56U G110U U116G G117U], the “polymerase ribozyme fitness (log ratio)” value was -6.29.

Take GACCAAUCUGCCCUCAGAGCUCGAGAACAUCUUCGGAUGCAGAGGAGGCAGGCUUUGGUGGCGCGAUAGCAGCAACCUCCUGAACCUCCAAUGCAUCCCACCACAUGAUGUUGCCUGAAGAGCCUUGGUUUUUUG [C56U G71A C72G G77C C82G A111U]: the “polymerase ribozyme fitness (log ratio)” value is -6.46.

As to GACCAAUCUGCCCUCAGAGCUCGAGAACAUCUUCGGAUGCAGAGGAGGCAGGCUUUGGUUGCGCGAUAGCGCCAACGUCCUCAACCUCCAAUGCAUCCCACCACAUGAUGAUGCCUGAAGAGCCUUGGUUUUUUG [C56U G60U], the “polymerase ribozyme fitness (log ratio)” value was -3.21.

Regarding GACCAAUCUGCCCUCAGAGCUCGAGAACAUCUUCGGAUGCAGAGGAGGCAGGCUUUGGUGCCGCGAUAGCGCCAACGUCCUCAACCUCCAAUGCAUUCCACCUCAUGAUGAUGCCUGAAGAGGCUUGGUUUUUUG [C56U G61C C97U A103U C123G], the “polymerase ribozyme fitness (log ratio)” value was -7.29.

Consider GACCAAUCUGCCCUCAGAGCUCGAGAACAUCUUCGGAUGCAGAGGAGGCAGGCUUUGGUGGCGCGAUAGCGCCAACAUCCUCAACCUCCAAUGCAUCCCACCACAUGAUGAUGCCUGAAGAGCUUUGGUUUUUUG [C56U G77A C124U], for which the “polymerase ribozyme fitness (log ratio)” value was 1.2.

Turning to GACCAAUCUGCCCUCAGAGCUCGAGAACAUCUUCGGAUGCAGAGGAGGCAGGCUUUGGUGGCGCGAUAGCGCCAACGUCCUCAACCUCCAAUGCAUCCCACCACAUGAUAAUGCCUGAAGAGCCUUGGUUUUUUG [C56U G110A], the “polymerase ribozyme fitness (log ratio)” value is -0.719.

As for GACCAAUCUGCCCUCAGAGCUCGAGAACAUCUUCGGAUGCAGAGGAGGCAGGCUUUGGUGGCGCGAUAACGCCAACGUCCUCAACCUCCAAUGCAUCCCACCACAUGAUGAUACCUGAAGAGCCUUGGUUUUUUG [C56U G69A G113A], the “polymerase ribozyme fitness (log ratio)” value was -5.38.

Regarding GACCAAUCUGCCCUCAGAGCUCGAGAACAUCUUCGGAUGCAGAGGAGGCAGGCUUUGGUGGCGCGAUAACGCCAACGGCCUCCACCUCCAAUGCAUCCCACCACAUGAUGAUGCCUGAAGAGCCUUGGUUUUUUG [C56U G69A U78G A83C], the “polymerase ribozyme fitness (log ratio)” value is -4.4.

As for GACCAAUCUGCCCUCAGAGCUCGAGAACAUCUUCGGAUGCAGAGGAGGCAGGCUUUGGUGUCGCGAUAGCGCCAACGUCCUCAACCUCCAAUGCAUCCCACCAUAUGAUGAGGCCUUAAGAGCUUUGGUUUUUUG [C56U G61U C104U U112G G117U C124U], the “polymerase ribozyme fitness (log ratio)” value is -5.56.

As for GACCAAUCUGCCCUCAGAGCUCGAGAACAUCUUCGGAUGCAGAGGAGGCAGGCUUUGGUGGCGCGAUAGCGCCAACGUCCUCAACCUCCAAUGCAUCCCACCACAUGAUGAUUCCUGAAGAGGCUUGGUUUUUUG [C56U G113U C123G], the “polymerase ribozyme fitness (log ratio)” value was -2.01.

Consider GACCAAUCUGCCCUCAGAGCUCGAGAACAUCUUCGGAUGCAGAGGAGGCAGGCUUUGGUGGCGCGAUAGCGCCAACGUCCUCAACCUCCAAUGCAUCCCACCACAUGAUGAUUCCUGAAGAGCCUUGGUUUUUUG [C56U G113U], for which the “polymerase ribozyme fitness (log ratio)” value was -2.72.

Take GACCAAUCUGCCCUCAGAGCUCGAGAACAUCUUCGGAUGCAGAGGAGGCAGGCUUUGGUGGCGCGAUAGCGCCAACGUCCUCAACCUCCAAUGCAUCCCACCACAUGAUGAUCCCUGAAGAGCCUUGGUUUUUUG [C56U G113C]: the “polymerase ribozyme fitness (log ratio)” value was -1.97.

In the case of GACCAAUCUGCCCUCAGAGCUCGAGAACAUCUUCGGAUGCAGAGGAGGCAGGCUUUGGUGGCGCGAUAGCGCCAACUUCCUCAACCUCCAAUGCAUCCCAACACAUGAUGAUGCCUGAAGAGCCUUGGUUUUUUG [C56U G77U C101A], the “polymerase ribozyme fitness (log ratio)” value is -1.15.

Take GACCAAUCUGCCCUCAGAGCUCGAGAACAUCUUCGGAUGCAGAGGAGGCAGGCUUUGGUGGCGCGAUAGCGCCAACAUCCUCAACCUCCAAUGCAUCCCACCACAUGAUGAUGCCUUAAAAGCAUUGGUUUUUUG [C56U G77A G117U G120A C124A]: the “polymerase ribozyme fitness (log ratio)” value was -1.34.

On to GACCAAUCUGCCCUCAGAGCUCGAGAACAUCUUCGGAUGCAGAGGAGGCAGGCUUUGGUGGCGCGAUAUCGCCAACGUCCUCAACCUCCAAUGCAUCCCACCACAUGAUGAUGCCUGAAGAGCCUUGGUUUUUUG [C56U G69U], for which the “polymerase ribozyme fitness (log ratio)” value is -1.78.

GACCAAUCUGCCCUCAGAGCUCGAGAACAUCUUCGGAUGCAGAGGAGGCAGGCUUUGGUGGCGCUAUAGCGCCAACGUCCUCAACCUCCAAUGCAUCCCACCACAUGAUGAUGUCUGAAGAGCCUUGGUUUUUUG [C56U G65U C114U]: the “polymerase ribozyme fitness (log ratio)” value is -6.33.

On to GACCAAUCUGCCCUCAGAGCUCGAGAACAUCUUCGGAUGCAGAGGAGGCAGGCUUUGGUGGCGCGAUAUCGCCAACGUCCUCAACCUCCAAUGCAUCCCACCACAUGAUGAGGCCUGAUGAGCCUUGGUUUUUUG [C56U G69U U112G A119U], for which the “polymerase ribozyme fitness (log ratio)” value was -3.07.

Consider GACCAAUCUGCCCUCAGAGCUCGAGAACAUCUUCGGAUGCAGAGGAGGCAGGCUUUGGUAGCGCGAUCGUGCCAACGUCCUCAACCUCCAAUGCAUCCCACCACAUGAUGAUGCCUGAAGAGCCUUGGUUUUUUG [C56U G60A A68C C70U], for which the “polymerase ribozyme fitness (log ratio)” value was -6.82.

On to GACCAAUCUGCCCUCAGAGCUCGAGAACAUCUUCGGAUGCAGAGGAGGCAGGCUUUGGUGGCCCGAUAGCGCCAACGUCCUCAACCUCCAAUGUAUCCCACCACAUGAUGAUGCCUGAAGAGCCUUGGUUUUUUG [C56U G63C C94U], for which the “polymerase ribozyme fitness (log ratio)” value was -5.48.
